Measurements published in article PMC5207133.
Read-outs that look alike come from different tables or passages of the source.

How the values were obtained:
[1] = target: T1, Ku70/80 heterodimer;DNA-PKcs;APLF (human (HeLa cells);human (HeLa …, UniProt P12956;P13010;P78527;Q8IW19 1-609;1-732;1-4128;1-511, ||)); details: protein: native;native;recombinant; tags: ;;GST removed by PreScission protease; copies: 1;1;1;1; label: 3'-FAM on strand 1; blunt
APLF [2] = target: T2, APLF (human, UniProt Q8IW19 1-511); details: protein: recombinant; tags: GST removed by PreScission protease; label: 3'-FAM on strand 1; blunt
Ku70/80 heterodimer;APLF [3] = target: T3, Ku70/80 heterodimer;APLF (human (HeLa cells);human, UniProt P12956;P13010;Q8IW19 1-609;1-732;1-511, |); details: protein: native;recombinant, tags: ;GST removed by PreScission protease, copies: 1;1;1, blunt
[4] = target: T4, Ku70/80 heterodimer;DNA-PKcs (human (HeLa cells);human (HeLa cells), UniProt P12956;P13010;P78527 1-609;1-732;1-4128, |); details: protein: native;native, tags: ;, copies: 1;1;1, blunt
Ku70/80 heterodimer [5] = target: T5, Ku70/80 heterodimer (human (HeLa cells), UniProt P12956;P13010 1-609;1-732); details: protein: native; copies: 1;1; label: 3'-FAM on strand 1; blunt
[6] = target: T4, Ku70/80 heterodimer;DNA-PKcs; details: protein: native;native; tags: ;; copies: 1;1;1; 20-bp duplex with stem-loop at one end and 5-nt overhang at the other
[7] = target: T1, Ku70/80 heterodimer;DNA-PKcs;APLF; details: protein: native;native;recombinant; tags: ;;GST removed by PreScission protease; copies: 1;1;1;1; 20-bp duplex with stem-loop at one end and 5-nt overhang at the other
APLF [8] = target: T2, APLF; details: protein: recombinant; tags: GST removed by PreScission protease; 20-bp duplex with stem-loop at one end and 5-nt overhang at the other
[9] = target: XRCC4-DNA ligase IV (X4L4) (human, UniProt Q13426;P49917 1-336;1-911); details: protein: recombinant; chain copies: 2;1; 20-bp duplex with stem-loop at one end and 5-nt overhang at the other
Ku70/80 heterodimer [10] = target: T5, Ku70/80 heterodimer; details: protein: native; copies: 1;1; 20-bp duplex with stem-loop at one end and 5-nt overhang at the other
[11] = target: T6, Ku70/80 heterodimer;XRCC4-DNA ligase IV (X4L4);APLF (human (HeLa cells);human;human, UniProt P12956;P13010;Q13426;P49917;Q8IW19 1-609;1-732;1-336;1-911;1-511, ||); details: protein: native;recombinant;recombinant; tags: ;;GST removed by PreScission protease; copies: 1;1;2;1;1; 20-bp duplex with stem-loop at one end and 5-nt overhang at the other
[12] = target: Ku70/80 heterodimer;XRCC4-DNA ligase IV (X4L4) (human (HeLa cells);human, UniProt P12956;P13010;Q13426;P49917 1-609;1-732;1-336;1-911, |); details: protein: native;recombinant; tags: ;; copies: 1;1;2;1; 20-bp duplex with stem-loop at one end and 5-nt overhang at the other
Ku70/80 heterodimer;APLF [13] = target: T3, Ku70/80 heterodimer;APLF; details: protein: native;recombinant; tags: ;GST removed by PreScission protease; copies: 1;1;1; 20-bp duplex with stem-loop at one end and 5-nt overhang at the other
[14] = target: T6, Ku70/80 heterodimer;XRCC4-DNA ligase IV …; details: protein: native;recombinant;recombinant; tags: ;;GST removed by PreScission protease; copies: 1;1;2;1;1; two stem-loop duplexes (strands 1+2, 3+4) annealing via complementary 10-nt A/T overhangs
Ku70/80 heterodimer [15] = target: T5, Ku70/80 heterodimer; details: protein: native; copies: 1;1; label: 3'-FAM on strand 2; blunt
[16] = target: T1, Ku70/80 heterodimer;DNA-PKcs;APLF; details: protein: native;native;recombinant; tags: ;;GST removed by PreScission protease; copies: 1;1;1;1; label: 3'-FAM on strand 2; blunt

T5 sequence (P12956 whole entry, chain 1 of 2): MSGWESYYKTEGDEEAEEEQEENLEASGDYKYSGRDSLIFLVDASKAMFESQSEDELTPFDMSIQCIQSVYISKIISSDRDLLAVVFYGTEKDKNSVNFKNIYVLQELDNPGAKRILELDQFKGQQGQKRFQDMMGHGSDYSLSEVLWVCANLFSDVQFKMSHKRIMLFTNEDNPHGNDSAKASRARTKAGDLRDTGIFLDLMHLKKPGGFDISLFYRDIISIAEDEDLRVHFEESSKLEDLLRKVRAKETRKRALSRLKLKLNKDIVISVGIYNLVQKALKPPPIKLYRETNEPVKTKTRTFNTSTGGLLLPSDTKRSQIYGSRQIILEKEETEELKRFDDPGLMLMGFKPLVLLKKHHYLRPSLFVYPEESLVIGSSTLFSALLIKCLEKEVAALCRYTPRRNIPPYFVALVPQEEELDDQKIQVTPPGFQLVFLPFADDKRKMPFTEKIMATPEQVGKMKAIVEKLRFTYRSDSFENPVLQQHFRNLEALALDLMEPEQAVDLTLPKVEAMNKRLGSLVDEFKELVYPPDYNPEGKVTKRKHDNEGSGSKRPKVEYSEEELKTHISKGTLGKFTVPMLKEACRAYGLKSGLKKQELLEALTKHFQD
T5 sequence (P13010 whole entry, chain 2 of 2): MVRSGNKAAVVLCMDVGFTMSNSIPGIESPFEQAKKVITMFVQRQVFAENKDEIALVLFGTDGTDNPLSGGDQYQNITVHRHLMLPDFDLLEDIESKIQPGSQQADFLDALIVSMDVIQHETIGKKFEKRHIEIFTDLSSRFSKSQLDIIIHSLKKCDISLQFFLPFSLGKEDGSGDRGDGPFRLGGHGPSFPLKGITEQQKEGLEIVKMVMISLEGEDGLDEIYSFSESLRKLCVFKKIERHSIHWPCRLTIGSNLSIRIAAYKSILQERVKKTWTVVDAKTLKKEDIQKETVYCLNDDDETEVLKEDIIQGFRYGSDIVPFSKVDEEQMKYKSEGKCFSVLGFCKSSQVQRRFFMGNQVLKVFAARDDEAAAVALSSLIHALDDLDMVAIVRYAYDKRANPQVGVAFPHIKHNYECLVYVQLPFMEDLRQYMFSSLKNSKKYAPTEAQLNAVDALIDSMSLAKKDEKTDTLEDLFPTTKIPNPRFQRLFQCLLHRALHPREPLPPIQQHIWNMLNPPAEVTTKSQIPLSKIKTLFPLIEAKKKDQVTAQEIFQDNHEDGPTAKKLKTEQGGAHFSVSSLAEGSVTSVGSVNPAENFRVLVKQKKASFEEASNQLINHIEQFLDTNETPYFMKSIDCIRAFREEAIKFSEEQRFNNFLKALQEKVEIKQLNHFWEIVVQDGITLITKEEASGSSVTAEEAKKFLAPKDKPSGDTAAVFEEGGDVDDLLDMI
T3 sequence (P12956 whole entry, chain 1 of 3): as the sequence (P12956 whole entry, chain 1 of 2) above
T3 sequence (P13010 whole entry, chain 2 of 3): as the sequence (P13010 whole entry, chain 2 of 2) above
T3 sequence (Q8IW19 whole entry, chain 3 of 3): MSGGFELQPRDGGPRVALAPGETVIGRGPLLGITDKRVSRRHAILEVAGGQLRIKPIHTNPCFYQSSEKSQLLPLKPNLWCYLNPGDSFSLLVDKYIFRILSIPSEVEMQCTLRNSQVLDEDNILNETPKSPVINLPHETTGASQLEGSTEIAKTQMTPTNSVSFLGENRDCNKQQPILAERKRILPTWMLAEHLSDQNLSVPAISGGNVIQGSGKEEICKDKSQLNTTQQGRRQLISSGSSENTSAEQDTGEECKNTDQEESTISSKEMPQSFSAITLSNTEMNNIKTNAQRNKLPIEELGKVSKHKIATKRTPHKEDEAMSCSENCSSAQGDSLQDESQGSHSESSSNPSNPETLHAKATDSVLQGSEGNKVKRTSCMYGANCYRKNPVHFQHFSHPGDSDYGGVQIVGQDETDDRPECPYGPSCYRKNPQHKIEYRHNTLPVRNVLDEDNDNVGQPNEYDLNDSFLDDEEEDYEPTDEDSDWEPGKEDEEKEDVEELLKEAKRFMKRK
XRCC4-DNA ligase IV (X4L4), sequence (Q13426 whole entry, chain 1 of 2): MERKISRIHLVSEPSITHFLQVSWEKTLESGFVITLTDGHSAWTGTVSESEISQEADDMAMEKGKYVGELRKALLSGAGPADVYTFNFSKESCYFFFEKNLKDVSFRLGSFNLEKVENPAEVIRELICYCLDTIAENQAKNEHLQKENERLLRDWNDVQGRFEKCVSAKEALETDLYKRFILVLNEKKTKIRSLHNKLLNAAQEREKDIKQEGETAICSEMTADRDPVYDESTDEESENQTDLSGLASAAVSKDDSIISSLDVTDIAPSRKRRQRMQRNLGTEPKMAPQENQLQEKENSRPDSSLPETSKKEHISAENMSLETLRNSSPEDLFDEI
XRCC4-DNA ligase IV (X4L4), sequence (P49917 whole entry, chain 2 of 2): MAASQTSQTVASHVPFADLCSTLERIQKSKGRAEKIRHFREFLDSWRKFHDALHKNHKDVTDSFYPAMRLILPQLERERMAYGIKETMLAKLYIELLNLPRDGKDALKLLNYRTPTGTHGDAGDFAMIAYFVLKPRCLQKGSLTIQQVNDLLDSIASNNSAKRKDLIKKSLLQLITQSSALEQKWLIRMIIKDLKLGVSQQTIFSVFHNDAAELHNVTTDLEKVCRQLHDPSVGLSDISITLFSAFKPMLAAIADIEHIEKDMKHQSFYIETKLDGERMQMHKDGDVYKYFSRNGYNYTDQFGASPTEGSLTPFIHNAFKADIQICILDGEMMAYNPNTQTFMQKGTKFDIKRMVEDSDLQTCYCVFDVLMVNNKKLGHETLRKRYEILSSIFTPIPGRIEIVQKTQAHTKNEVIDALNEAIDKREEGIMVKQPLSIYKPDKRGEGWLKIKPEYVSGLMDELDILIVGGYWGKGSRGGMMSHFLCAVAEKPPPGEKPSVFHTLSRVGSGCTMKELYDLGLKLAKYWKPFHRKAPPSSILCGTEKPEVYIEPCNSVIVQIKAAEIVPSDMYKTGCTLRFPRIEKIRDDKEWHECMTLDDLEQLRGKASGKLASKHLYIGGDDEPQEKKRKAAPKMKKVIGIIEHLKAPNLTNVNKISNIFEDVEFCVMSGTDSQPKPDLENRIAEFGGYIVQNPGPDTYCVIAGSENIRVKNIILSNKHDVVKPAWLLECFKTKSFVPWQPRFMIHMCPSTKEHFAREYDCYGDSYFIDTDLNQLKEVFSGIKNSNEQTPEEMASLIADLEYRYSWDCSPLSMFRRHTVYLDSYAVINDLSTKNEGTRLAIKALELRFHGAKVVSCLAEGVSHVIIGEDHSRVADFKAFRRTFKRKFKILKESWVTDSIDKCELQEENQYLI
Ku70/80 heterodimer;XRCC4-DNA ligase IV (X4L4), sequence (P12956 whole entry, chain 1 of 4): as the sequence (P12956 whole entry, chain 1 of 2) above
Ku70/80 heterodimer;XRCC4-DNA ligase IV (X4L4), sequence (P13010 whole entry, chain 2 of 4): as the sequence (P13010 whole entry, chain 2 of 2) above
Ku70/80 heterodimer;XRCC4-DNA ligase IV (X4L4), sequence (Q13426 whole entry, chain 3 of 4): as the sequence (Q13426 whole entry, chain 1 of 2) above
Ku70/80 heterodimer;XRCC4-DNA ligase IV (X4L4), sequence (P49917 whole entry, chain 4 of 4): as the sequence (P49917 whole entry, chain 2 of 2) above

B1: 40bpDNA 3'-FAM (dsDNA)
DNA 1: GGATACACAACAGACCGCAACACTCAGATTACTTTTCGCC
DNA 2: GGCGAAAAGTAATCTGAGTGTTGCGGTCTGTTGTGTATCC
B1: binds [1]; no binding (APLF [2]); binds (Ku70/80 heterodimer;APLF [3]; label: 3'-FAM on strand 1). B1: binds ([4]; label: 3'-FAM on strand 1); binds (Ku70/80 heterodimer [5]).

B2: 20bpDNA (stem-loop A) (structured_DNA)
DNA 1: CCCACCCAAAAATCAATAATCGACCCTTTCGACCCGCGC
DNA 2: GCGCGGGTTATTTGATTTTTGGGTGGGGTCGA
B2: binds [6]; binds [7]; no binding (APLF [8]). B2: no binding [9]; binds (Ku70/80 heterodimer [10]); binds [11]. B2: binds [12]; binds (Ku70/80 heterodimer;APLF [13]).

B3: 20bpDNA-10nt (stem-loop B plus complementary stem-loop) (structured_DNA)
DNA 1: B2 DNA 1
DNA 2: GCGCGGGTTATTTGATTTTTGGGTGGGAAAAAAAAAA
DNA 3: TTTTTTTTTTCCCACCCAAAAATCAAATAATCGACCCTTTCGACCCGCGC
DNA 4: GCGCGGGTTATTTGATTTTTGGGTGGG
B3: binds [14].

B4: 25bpDNA 3'-FAM (dsDNA)
DNA 1: AGCATTGACTGGCATCGTAGCATCC
DNA 2: GGATGCTACGATGCCAGTCAATGCT
B4: binds (Ku70/80 heterodimer [15]); binds (Ku70/80 heterodimer;APLF [3]; label: 3'-FAM on strand 2); binds [16]. B4: binds ([4]; label: 3'-FAM on strand 2).
